This data set concerns T1, dFrCas9 (Faecalibaculum rodentium).
T1 sequence: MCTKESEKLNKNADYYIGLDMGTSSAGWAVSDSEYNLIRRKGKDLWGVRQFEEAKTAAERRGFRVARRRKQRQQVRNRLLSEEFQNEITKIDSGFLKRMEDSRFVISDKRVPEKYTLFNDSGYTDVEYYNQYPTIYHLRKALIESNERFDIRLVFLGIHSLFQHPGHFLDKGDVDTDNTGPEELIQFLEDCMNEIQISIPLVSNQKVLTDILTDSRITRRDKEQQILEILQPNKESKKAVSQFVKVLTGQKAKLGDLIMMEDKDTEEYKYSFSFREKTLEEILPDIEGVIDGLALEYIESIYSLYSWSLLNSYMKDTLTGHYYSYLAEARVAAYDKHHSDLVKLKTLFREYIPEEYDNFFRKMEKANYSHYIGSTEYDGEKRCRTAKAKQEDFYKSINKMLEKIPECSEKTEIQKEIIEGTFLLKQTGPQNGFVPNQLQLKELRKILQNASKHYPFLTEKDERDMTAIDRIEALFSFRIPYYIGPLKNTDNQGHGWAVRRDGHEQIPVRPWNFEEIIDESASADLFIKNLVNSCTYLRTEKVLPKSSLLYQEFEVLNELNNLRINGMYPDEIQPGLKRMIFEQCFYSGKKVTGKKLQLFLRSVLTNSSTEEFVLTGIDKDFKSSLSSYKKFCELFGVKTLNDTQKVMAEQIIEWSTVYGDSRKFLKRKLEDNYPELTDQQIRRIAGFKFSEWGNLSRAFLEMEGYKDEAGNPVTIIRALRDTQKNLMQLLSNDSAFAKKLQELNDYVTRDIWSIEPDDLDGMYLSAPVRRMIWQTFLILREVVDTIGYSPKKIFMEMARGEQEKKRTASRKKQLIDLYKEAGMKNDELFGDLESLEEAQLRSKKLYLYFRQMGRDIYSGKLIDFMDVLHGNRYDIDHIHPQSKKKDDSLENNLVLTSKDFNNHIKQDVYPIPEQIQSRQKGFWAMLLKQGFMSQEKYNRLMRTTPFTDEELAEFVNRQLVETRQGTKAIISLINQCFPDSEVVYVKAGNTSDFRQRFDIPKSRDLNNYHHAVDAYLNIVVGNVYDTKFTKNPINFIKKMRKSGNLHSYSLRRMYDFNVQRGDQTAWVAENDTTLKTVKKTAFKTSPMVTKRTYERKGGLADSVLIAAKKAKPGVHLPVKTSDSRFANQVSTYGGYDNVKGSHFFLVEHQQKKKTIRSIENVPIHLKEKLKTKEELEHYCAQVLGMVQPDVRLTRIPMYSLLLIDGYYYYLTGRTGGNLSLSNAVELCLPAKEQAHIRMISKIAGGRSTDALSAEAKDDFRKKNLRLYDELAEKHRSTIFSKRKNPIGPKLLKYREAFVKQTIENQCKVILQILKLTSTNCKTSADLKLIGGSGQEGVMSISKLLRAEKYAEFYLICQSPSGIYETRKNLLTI
Briefly: cell_activity. Particulars: CRISPRi by binding TATA-box; PAM NNTA.

ABCA1 TATA-box sgRNA ; ABCA1 TATA-box yielded an activity (% decrease of expression) of 61.7.

(Values after patent US20230265421.)
